Earlier results in article PMC3309041.

Biological target: IL-8 (monomeric) (Homo sapiens) (UniProt P10145)
Details: cited from earlier work

Chain of IL-8 (monomeric) (Homo sapiens) (P10145 28-99): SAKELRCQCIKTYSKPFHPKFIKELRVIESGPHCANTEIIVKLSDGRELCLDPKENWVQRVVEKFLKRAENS
Chain of CXCR1 N-terminal peptide N-terminus (P21109 11-44): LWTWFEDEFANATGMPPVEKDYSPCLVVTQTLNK

## CXCR1 N-terminal peptide N-terminus (from UniProt P21109)
  Kd: 8.6 µM
